According to US20090137002A1 (published 2009):

T1: myc-tagged human EphB4 on transfected CHO cells (human, UniProt P54760 16-987)
T1 construct: whole, on cells; also called CHO-EphB4; CHO-hEphB4; not shown: myc tag
T1 sequence (looked up): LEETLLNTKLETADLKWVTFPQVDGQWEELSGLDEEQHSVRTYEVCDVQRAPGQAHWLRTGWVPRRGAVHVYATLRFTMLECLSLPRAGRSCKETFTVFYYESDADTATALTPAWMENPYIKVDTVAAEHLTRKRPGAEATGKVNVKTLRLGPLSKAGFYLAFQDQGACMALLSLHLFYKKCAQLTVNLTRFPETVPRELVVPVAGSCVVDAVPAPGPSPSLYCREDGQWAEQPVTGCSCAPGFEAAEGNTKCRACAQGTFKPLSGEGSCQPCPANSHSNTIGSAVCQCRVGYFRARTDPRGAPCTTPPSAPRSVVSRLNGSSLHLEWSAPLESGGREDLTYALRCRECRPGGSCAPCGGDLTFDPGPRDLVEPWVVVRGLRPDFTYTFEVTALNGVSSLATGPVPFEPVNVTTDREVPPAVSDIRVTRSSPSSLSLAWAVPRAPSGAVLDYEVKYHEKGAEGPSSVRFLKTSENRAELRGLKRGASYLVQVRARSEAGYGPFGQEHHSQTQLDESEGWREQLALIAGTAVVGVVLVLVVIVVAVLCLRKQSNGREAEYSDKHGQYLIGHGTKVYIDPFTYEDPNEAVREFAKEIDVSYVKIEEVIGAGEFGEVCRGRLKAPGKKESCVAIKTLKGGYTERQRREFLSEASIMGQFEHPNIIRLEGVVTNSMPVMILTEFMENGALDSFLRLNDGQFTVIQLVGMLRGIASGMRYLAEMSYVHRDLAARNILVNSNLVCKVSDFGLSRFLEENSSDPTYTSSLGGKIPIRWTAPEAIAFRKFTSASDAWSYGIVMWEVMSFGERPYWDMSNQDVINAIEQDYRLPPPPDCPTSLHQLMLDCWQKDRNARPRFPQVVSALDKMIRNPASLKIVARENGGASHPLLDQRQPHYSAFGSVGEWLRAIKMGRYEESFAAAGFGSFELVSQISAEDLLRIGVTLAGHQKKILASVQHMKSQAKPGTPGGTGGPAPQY

T2: recombinant mouse EphB3-Fc fusion protein (mouse, UniProt P54754 30-537, limits assumed)
T2 construct: also called mEphB3; not shown: Fc part, not described
T2 sequence (looked up): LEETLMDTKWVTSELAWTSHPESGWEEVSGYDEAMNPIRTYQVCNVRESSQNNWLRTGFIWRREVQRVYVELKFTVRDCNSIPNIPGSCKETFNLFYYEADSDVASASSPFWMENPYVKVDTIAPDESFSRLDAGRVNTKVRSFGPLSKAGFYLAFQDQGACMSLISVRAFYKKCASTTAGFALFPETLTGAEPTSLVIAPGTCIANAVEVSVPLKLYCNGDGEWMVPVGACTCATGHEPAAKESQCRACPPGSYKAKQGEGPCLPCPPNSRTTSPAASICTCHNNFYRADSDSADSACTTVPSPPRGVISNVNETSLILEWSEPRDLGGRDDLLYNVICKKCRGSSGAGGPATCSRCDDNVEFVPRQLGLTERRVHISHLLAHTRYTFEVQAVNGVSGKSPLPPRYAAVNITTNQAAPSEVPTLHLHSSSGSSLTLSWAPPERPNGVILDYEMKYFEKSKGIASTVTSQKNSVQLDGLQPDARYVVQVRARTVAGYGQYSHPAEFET

T3: recombinant human EphB4-Fc fusion protein (human, UniProt P54760 16-539)
T3 construct: extracellular domain; also called hEphB4; hu EphB4-Fc
T3 sequence (looked up): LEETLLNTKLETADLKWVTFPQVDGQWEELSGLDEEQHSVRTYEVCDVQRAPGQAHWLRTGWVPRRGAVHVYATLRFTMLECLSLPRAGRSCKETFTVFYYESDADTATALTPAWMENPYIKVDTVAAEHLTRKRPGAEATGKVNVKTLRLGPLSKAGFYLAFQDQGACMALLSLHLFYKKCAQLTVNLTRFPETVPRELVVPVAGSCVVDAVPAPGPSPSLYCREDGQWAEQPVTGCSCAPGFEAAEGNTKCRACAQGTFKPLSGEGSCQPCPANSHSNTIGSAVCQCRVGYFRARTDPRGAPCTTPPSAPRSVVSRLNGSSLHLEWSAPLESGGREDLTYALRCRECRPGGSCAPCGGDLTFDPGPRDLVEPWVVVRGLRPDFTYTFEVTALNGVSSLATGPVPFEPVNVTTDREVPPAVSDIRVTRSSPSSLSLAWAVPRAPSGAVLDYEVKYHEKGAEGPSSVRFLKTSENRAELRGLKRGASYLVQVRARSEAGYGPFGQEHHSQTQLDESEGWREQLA


How the values were obtained:
[1] = biological target: T1, myc-tagged human EphB4 on transfected …; experiment: FACS competition on CHO-EphB4 cells, competitor murine ephrin-B2
Procedure: (§1) C50 values (i.e. IgG4-Pro inhibition of ligand binding) were determined in FACS. […] Receptor-bound ephrin-B2 was detected via biotinylated anti-mouse ephrin-B2 antibody (R&D Systems) and streptavidin-PE. The IC50 values of the IgGs, determined in two independent experiments, are given in Table 11 and are compared to the IC50 values of the corresponding Fab. […] Again, as already seen for the Fab, the IC50 values of the MOR07310 pool were slightly better than those of the MOR03641 pool.

[2] = biological target: T1, myc-tagged human EphB4 on transfected …; experiment: FACS, IgG4-Pro inhibition of murine ephrin-B2 binding to CHO-EphB4 cells
Procedure: as §1

[3] = biological target: T1, myc-tagged human EphB4 on transfected …; experiment: FACS titration of IgG4-Pro on CHO-EphB4 cells; n = 1
Procedure: (§2) For the determination of EC50 values, the 12 final IgGs were analyzed on CHO-EphB4 cells in FACS. The EC50 values of the IgGs, determined in two independent experiments, are given in Table 11 and are compared to the EC50 values of the corresponding Fab. […] Again, as already seen for the Fab, the EC50 values of the MOR07310 pool were slightly better than those of the MOR03641 pool.

[4] = biological target: T1, myc-tagged human EphB4 on transfected …; experiment: FACS titration of IgG4-Pro on CHO-EphB4 cells; end tied by Table 11 (4.83)
Procedure: as §2

[5] = biological target: T1, myc-tagged human EphB4 on transfected …; experiment: FACS, IgG4-Pro inhibition of murine ephrin-B2 binding to CHO-EphB4 cells; end tied by Table 11 (11.55)
Procedure: as §1

[6] = biological target: T1, myc-tagged human EphB4 on transfected …; experiment: FACS titration of IgG4-Pro on CHO-EphB4 cells
Procedure: as §2

[7] = biological target: T2, recombinant mouse EphB3-Fc fusion …; experiment: ELISA: biotinylated mEphrinB2 (250 ng/mL) on coated mEphB3, with or without 100 µg/mL anti-EphB4 Fab
Procedure: (§3) A 96-well plate was coated with recombinant mEphB3, mEphA4 and hEphB4 in PBS o/n at 4° C. (5 μg/mL; 100 μL/well). The next day, the antigen was discarded and the plate blocked with 3% BSA/PBS (300 μl/well) for 2 hrs at room temperature (RT). Blocking solution was discarded and anti-EphB4 Fabs were added to the wells at a concentration of 100 μg/mL in 1% BSA/PBS and incubated for 30 min at RT. Recombinant biotinylated murine EphrinB2 was added at a final concentration of 250 ng/mL and incubated at RT for a further 30 min. The plate was washed and bound EphrinB2 was detected with Streptavidin-HRP (incubation 30 min at RT) and chemifluorescent substrate.

[8] = biological target: T4, recombinant mouse EphA4-Fc fusion protein (mouse, UniProt Q03137 20-547, limits assumed); experiment: ELISA: biotinylated mEphrinB2 on coated mEphA4
T4 construct: also called mEphA4; not shown: Fc part, not described
T4 sequence (Q03137 20-547 limits assumed): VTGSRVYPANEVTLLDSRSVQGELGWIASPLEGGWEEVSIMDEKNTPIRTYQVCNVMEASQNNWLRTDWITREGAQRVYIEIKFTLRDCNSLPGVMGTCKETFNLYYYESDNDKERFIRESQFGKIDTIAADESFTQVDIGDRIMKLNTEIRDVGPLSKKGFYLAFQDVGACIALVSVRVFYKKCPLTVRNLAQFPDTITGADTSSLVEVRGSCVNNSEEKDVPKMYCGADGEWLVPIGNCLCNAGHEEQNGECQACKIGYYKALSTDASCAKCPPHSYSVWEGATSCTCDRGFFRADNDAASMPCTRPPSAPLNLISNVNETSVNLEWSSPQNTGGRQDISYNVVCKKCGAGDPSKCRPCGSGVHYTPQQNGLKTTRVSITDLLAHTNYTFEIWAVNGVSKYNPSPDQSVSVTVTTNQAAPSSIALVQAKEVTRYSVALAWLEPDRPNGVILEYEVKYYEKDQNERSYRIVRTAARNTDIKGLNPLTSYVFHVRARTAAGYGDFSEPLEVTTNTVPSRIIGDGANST
Procedure: as §3

[9] = biological target: T3, recombinant human EphB4-Fc fusion …; experiment: ELISA: biotinylated mEphrinB2 (250 ng/mL) on coated hEphB4, with or without 100 µg/mL anti-EphB4 Fab
Procedure: as §3

IC50 (read off the curve) [1]	IC50 [2]	EC50 [3]	EC50 [4]	IC50 [5]	EC50 [6]	EC50 (read off the curve) [6]	binding result [7]	binding result [8]	binding result [9]	Binder
~0.1 nM	0.11 nM	0.3 nM								MOR07720 IgG4-Pro (antibody, V domains shown, Fab MOR07720 converted into human IgG4-Pro format) VH: QVQLVESGGGLVQPGGSLRLSCAASGFTFNNAWMSWVRQAPGKGLEWVSQIEAKQPGGATSYAASVKGRFTISRDNSKNTLYLQMNSLRAEDTAVYYCARKGMSFYNNKYAKSMFDLWGQGTLVTVSS VL: DIELTQPPSVSVAPGQTARISCSGDNLGKKYVHWYQQKPGQAPVLVIYYDSKRPSGIPERFSGSNSGNTATLTISGTQAEDEADYYCSAWTTTMMHIVFGGGTKLTVLG
~20 nM	11.6 nM		4.8 nM	11.6 nM	4.83 nM	~5 nM				MOR07729 IgG4-Pro (antibody, V domains shown, Fab MOR07729 converted into human IgG4-Pro format) VH: QVELVQSGAEVKKPGSSVKVSCKASGGTFSTYAISWVRQAPGQGLEWMGRIIPIFGTANYAQKFQGRVTITADESTSTAYMELSSLRSEDTAVYYCARSSYTILTTYYNYNAMDNWGQGTLVTVSS VL: DIQMTQSPSSLSASVGDRVTITCRASQNINNFLNWYQQKPGKAPKLLIYGSSILQSGVPSRFSGSGSGTDFTLTISSLQPEDFATYYCQQYDFYLSGTFGQGTKVEIKR
							binds	no binding (tested: 250 ng/mL)	binds	recombinant murine EphrinB2 (extracellular domain) (ligand, mouse, UniProt P52800 29-232, looked up, biotinylated in Examples 8 and 10-12, extracellular domain; also called mEphrinB2; recombinant biotinylated murine EphrinB2) RSIVLEPIYWNSSNSKFLPGQGLVLYPQIGDKLDIICPKVDSKTVGQYEYYKVYMVDKDQADRCTIKKENTPLLNCARPDQDVKFTIKFQEFSPNLWGLEFQKNKDYYIISTSNGSLEGLDNQEGGVCQTRAMKILMKVGQDASSAGSARNHGPTRRPELEAGTNGRSSTTSPFVKPNPGSSTDGNSAGHSGNNLLGSEVALFA
